# Numbered stars: 1 amine (or outer) side, 2 acyl side, 3 side chain; on linkers, the order of the positions; unused ones are H or OH. Square brackets hold non-standard residues; d marks the D form. Side chains are listed from the residue outwards. * marks the point of attachment. γGlu = O=C(O)[C@H](CCC(=O)[*:2])N[*:1]; Palmitoyl = CCCCCCCCCCCCCCCC(=O)*; Aib = CC(C)(N)C(=O)O
# T1: endogenous GLP-1 receptor of a murine insulinoma cell line (murine, UniProt O35659 22-463)
# T1 sequence (looked up): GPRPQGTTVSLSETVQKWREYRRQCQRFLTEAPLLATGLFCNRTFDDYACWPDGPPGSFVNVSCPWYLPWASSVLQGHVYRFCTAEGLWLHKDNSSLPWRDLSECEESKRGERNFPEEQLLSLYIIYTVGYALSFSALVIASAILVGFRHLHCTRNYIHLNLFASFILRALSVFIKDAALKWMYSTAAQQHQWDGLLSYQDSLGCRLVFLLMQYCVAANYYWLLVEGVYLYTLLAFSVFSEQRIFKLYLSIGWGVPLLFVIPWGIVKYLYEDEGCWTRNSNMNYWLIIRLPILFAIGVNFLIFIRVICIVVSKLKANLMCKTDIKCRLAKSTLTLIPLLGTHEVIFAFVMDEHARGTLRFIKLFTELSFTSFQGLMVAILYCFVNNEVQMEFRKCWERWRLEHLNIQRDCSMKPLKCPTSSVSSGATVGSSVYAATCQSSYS
# Key:
# Assay in all cases: cell-based or functional assay
# [1] = target: T1, endogenous GLP-1 receptor of a murine …
# [2] = target: human glucagon receptor (Glucagon-R) (human, UniProt P47871 26-477)
# [3] = target: human glucagon-like peptide 1 receptor (GLP-1R) (human, UniProt P43220 24-463)
# [4] = target: endogenous glucagon receptor of primary rat hepatocytes (rat, UniProt P30082 27-485)
# Sequence of endogenous glucagon receptor of primary rat hepatocytes (P30082 27-485): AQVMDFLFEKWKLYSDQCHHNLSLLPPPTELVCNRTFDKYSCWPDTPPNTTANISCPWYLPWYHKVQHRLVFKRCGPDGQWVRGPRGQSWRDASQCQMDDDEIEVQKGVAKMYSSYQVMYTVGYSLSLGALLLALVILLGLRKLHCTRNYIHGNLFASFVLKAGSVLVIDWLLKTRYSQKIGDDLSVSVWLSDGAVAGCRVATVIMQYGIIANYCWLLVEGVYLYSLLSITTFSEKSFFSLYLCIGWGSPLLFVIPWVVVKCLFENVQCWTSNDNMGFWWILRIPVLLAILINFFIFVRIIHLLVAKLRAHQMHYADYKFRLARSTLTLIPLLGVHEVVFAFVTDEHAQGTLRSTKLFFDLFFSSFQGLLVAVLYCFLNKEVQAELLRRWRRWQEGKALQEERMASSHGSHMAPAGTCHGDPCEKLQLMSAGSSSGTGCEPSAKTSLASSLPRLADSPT
# Sequence of human glucagon receptor (Glucagon-R) (P47871 26-477): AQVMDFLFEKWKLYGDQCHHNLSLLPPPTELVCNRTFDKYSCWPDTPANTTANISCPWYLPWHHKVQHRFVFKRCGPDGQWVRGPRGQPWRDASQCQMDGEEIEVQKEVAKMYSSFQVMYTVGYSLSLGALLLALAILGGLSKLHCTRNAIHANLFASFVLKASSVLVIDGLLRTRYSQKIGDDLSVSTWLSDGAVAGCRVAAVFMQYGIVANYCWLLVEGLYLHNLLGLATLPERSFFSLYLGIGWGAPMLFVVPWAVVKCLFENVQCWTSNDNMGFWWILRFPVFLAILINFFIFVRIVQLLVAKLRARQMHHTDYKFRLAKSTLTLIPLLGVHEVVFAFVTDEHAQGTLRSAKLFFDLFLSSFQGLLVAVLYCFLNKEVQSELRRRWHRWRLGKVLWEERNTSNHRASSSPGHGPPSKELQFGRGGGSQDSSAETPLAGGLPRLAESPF
binder,measurement,setting,value
H-H[Aib]QGTFTSDYSKYLDSK([γGlu-Palmitoyl])AAHDFVEWLLS-OH (SMILES CCCCCCCCCCCCCCCC(=O)N[C@@H](CCC(=O)NCCCC[C@H](NC(=O)[C@H](CO)NC(=O)[C@H](CC(=O)O)NC(=O)[C@H](CC(C)C)NC(=O)[C@H](Cc1ccc(O)cc1)NC(=O)[C@H](CCCCN)NC(=O)[C@H](CO)NC(=O)[C@H](Cc1ccc(O)cc1)NC(=O)[C@H](CC(=O)O)NC(=O)[C@H](CO)NC(=O)[C@@H](NC(=O)[C@H](Cc1ccccc1)NC(=O)[C@@H](NC(=O)CNC(=O)[C@H](CCC(N)=O)NC(=O)C(C)(C)NC(=O)[C@@H](N)Cc1c[nH]cn1)[C@@H](C)O)[C@@H](C)O)C(=O)N[C@@H](C)C(=O)N[C@@H](C)C(=O)N[C@@H](Cc1c[nH]cn1)C(=O)N[C@@H](CC(=O)O)C(=O)N[C@@H](Cc1ccccc1)C(=O)N[C@H](C(=O)N[C@@H](CCC(=O)O)C(=O)N[C@@H](Cc1c[nH]c2ccccc12)C(=O)N[C@@H](CC(C)C)C(=O)N[C@@H](CC(C)C)C(=O)N[C@@H](CO)C(=O)O)C(C)C)C(=O)O) [Compound 1],EC50 GLP-1R (murine insulinoma cells) [nM] (cAMP),[1],1.47 nM
same,EC50 hGCGR CHO-K1 [nM] (cAMP),[2],0.9 nM
same,EC50 hGLP-1R CHO-K1 [nM] (cAMP),[3],0.54 nM
same,Ratio GLP-1/Glucagon (EC50 hGLP-1R / EC50 hGCGR),[3],0.6 ratio
H-H[Aib]QGTFTSDYSKYLDSK([γGlu-Palmitoyl])AAHDFVEWLESA-NH2 (SMILES CCCCCCCCCCCCCCCC(=O)N[C@@H](CCC(=O)NCCCC[C@H](NC(=O)[C@H](CO)NC(=O)[C@H](CC(=O)O)NC(=O)[C@H](CC(C)C)NC(=O)[C@H](Cc1ccc(O)cc1)NC(=O)[C@H](CCCCN)NC(=O)[C@H](CO)NC(=O)[C@H](Cc1ccc(O)cc1)NC(=O)[C@H](CC(=O)O)NC(=O)[C@H](CO)NC(=O)[C@@H](NC(=O)[C@H](Cc1ccccc1)NC(=O)[C@@H](NC(=O)CNC(=O)[C@H](CCC(N)=O)NC(=O)C(C)(C)NC(=O)[C@@H](N)Cc1c[nH]cn1)[C@@H](C)O)[C@@H](C)O)C(=O)N[C@@H](C)C(=O)N[C@@H](C)C(=O)N[C@@H](Cc1c[nH]cn1)C(=O)N[C@@H](CC(=O)O)C(=O)N[C@@H](Cc1ccccc1)C(=O)N[C@H](C(=O)N[C@@H](CCC(=O)O)C(=O)N[C@@H](Cc1c[nH]c2ccccc12)C(=O)N[C@@H](CC(C)C)C(=O)N[C@@H](CCC(=O)O)C(=O)N[C@@H](CO)C(=O)N[C@@H](C)C(N)=O)C(C)C)C(=O)O) [Compound 5],EC50 GLP-1R (murine insulinoma cells) [nM] (cAMP),[1],0.54 nM
same,EC50 GLP-1R Rat hepat. [nM] (inhibition of glycogen synthesis),[4],0.03 nM
same,EC50 hGCGR CHO-K1 [nM] (cAMP),[2],0.46 nM
same,EC50 hGLP-1R CHO-K1 [nM] (cAMP),[3],0.16 nM
same,Ratio GLP-1/Glucagon (EC50 hGLP-1R / EC50 hGCGR),[3],0.35 ratio
H-HSQGTFTSDYSKYLDSK([γGlu-Palmitoyl])AAHDFVEWLLRA-OH (SMILES CCCCCCCCCCCCCCCC(=O)N[C@@H](CCC(=O)NCCCC[C@H](NC(=O)[C@H](CO)NC(=O)[C@H](CC(=O)O)NC(=O)[C@H](CC(C)C)NC(=O)[C@H](Cc1ccc(O)cc1)NC(=O)[C@H](CCCCN)NC(=O)[C@H](CO)NC(=O)[C@H](Cc1ccc(O)cc1)NC(=O)[C@H](CC(=O)O)NC(=O)[C@H](CO)NC(=O)[C@@H](NC(=O)[C@H](Cc1ccccc1)NC(=O)[C@@H](NC(=O)CNC(=O)[C@H](CCC(N)=O)NC(=O)[C@H](CO)NC(=O)[C@@H](N)Cc1c[nH]cn1)[C@@H](C)O)[C@@H](C)O)C(=O)N[C@@H](C)C(=O)N[C@@H](C)C(=O)N[C@@H](Cc1c[nH]cn1)C(=O)N[C@@H](CC(=O)O)C(=O)N[C@@H](Cc1ccccc1)C(=O)N[C@H](C(=O)N[C@@H](CCC(=O)O)C(=O)N[C@@H](Cc1c[nH]c2ccccc12)C(=O)N[C@@H](CC(C)C)C(=O)N[C@@H](CC(C)C)C(=O)N[C@@H](CCCNC(=N)N)C(=O)N[C@@H](C)C(=O)O)C(C)C)C(=O)O) [Compound 3],EC50 GLP-1R (murine insulinoma cells) [nM] (cAMP),[1],1.06 nM
same,EC50 GLP-1R Rat hepat. [nM] (inhibition of glycogen synthesis),[4],0.16 nM
same,EC50 hGCGR CHO-K1 [nM] (cAMP),[2],0.35 nM
same,EC50 hGLP-1R CHO-K1 [nM] (cAMP),[3],0.91 nM
same,Ratio GLP-1/Glucagon (EC50 hGLP-1R / EC50 hGCGR),[3],2.6 ratio
H-H[Aib]QGTFTSDYSKYLDEK([γGlu-Palmitoyl])RAKDFIEWLLS-OH (SMILES CCCCCCCCCCCCCCCC(=O)N[C@@H](CCC(=O)NCCCC[C@H](NC(=O)[C@H](CCC(=O)O)NC(=O)[C@H](CC(=O)O)NC(=O)[C@H](CC(C)C)NC(=O)[C@H](Cc1ccc(O)cc1)NC(=O)[C@H](CCCCN)NC(=O)[C@H](CO)NC(=O)[C@H](Cc1ccc(O)cc1)NC(=O)[C@H](CC(=O)O)NC(=O)[C@H](CO)NC(=O)[C@@H](NC(=O)[C@H](Cc1ccccc1)NC(=O)[C@@H](NC(=O)CNC(=O)[C@H](CCC(N)=O)NC(=O)C(C)(C)NC(=O)[C@@H](N)Cc1c[nH]cn1)[C@@H](C)O)[C@@H](C)O)C(=O)N[C@@H](CCCNC(=N)N)C(=O)N[C@@H](C)C(=O)N[C@@H](CCCCN)C(=O)N[C@@H](CC(=O)O)C(=O)N[C@@H](Cc1ccccc1)C(=O)N[C@H](C(=O)N[C@@H](CCC(=O)O)C(=O)N[C@@H](Cc1c[nH]c2ccccc12)C(=O)N[C@@H](CC(C)C)C(=O)N[C@@H](CC(C)C)C(=O)N[C@@H](CO)C(=O)O)[C@@H](C)CC)C(=O)O) [Compound 11],EC50 GLP-1R (murine insulinoma cells) [nM] (cAMP),[1],1.01 nM
same,EC50 hGCGR CHO-K1 [nM] (cAMP),[2],0.61 nM
same,EC50 hGLP-1R CHO-K1 [nM] (cAMP),[3],0.64 nM
same,Ratio GLP-1/Glucagon (EC50 hGLP-1R / EC50 hGCGR),[3],1.05 ratio
H-HSQGTFTSDYSRYLDSK([γGlu-Palmitoyl])AAEDFVEWLLRA-NH2 (SMILES CCCCCCCCCCCCCCCC(=O)N[C@@H](CCC(=O)NCCCC[C@H](NC(=O)[C@H](CO)NC(=O)[C@H](CC(=O)O)NC(=O)[C@H](CC(C)C)NC(=O)[C@H](Cc1ccc(O)cc1)NC(=O)[C@H](CCCNC(=N)N)NC(=O)[C@H](CO)NC(=O)[C@H](Cc1ccc(O)cc1)NC(=O)[C@H](CC(=O)O)NC(=O)[C@H](CO)NC(=O)[C@@H](NC(=O)[C@H](Cc1ccccc1)NC(=O)[C@@H](NC(=O)CNC(=O)[C@H](CCC(N)=O)NC(=O)[C@H](CO)NC(=O)[C@@H](N)Cc1c[nH]cn1)[C@@H](C)O)[C@@H](C)O)C(=O)N[C@@H](C)C(=O)N[C@@H](C)C(=O)N[C@@H](CCC(=O)O)C(=O)N[C@@H](CC(=O)O)C(=O)N[C@@H](Cc1ccccc1)C(=O)N[C@H](C(=O)N[C@@H](CCC(=O)O)C(=O)N[C@@H](Cc1c[nH]c2ccccc12)C(=O)N[C@@H](CC(C)C)C(=O)N[C@@H](CC(C)C)C(=O)N[C@@H](CCCNC(=N)N)C(=O)N[C@@H](C)C(N)=O)C(C)C)C(=O)O) [Compound 6],EC50 GLP-1R (murine insulinoma cells) [nM] (cAMP),[1],1.14 nM
same,EC50 GLP-1R Rat hepat. [nM] (inhibition of glycogen synthesis),[4],2.87 nM
same,EC50 hGCGR CHO-K1 [nM] (cAMP),[2],0.46 nM
same,EC50 hGLP-1R CHO-K1 [nM] (cAMP),[3],0.35 nM
same,Ratio GLP-1/Glucagon (EC50 hGLP-1R / EC50 hGCGR),[3],0.76 ratio
H-HSQGTFTSDYSKYLDSK([γGlu-Palmitoyl])AAHDFVEWLLSA-OH (SMILES CCCCCCCCCCCCCCCC(=O)N[C@@H](CCC(=O)NCCCC[C@H](NC(=O)[C@H](CO)NC(=O)[C@H](CC(=O)O)NC(=O)[C@H](CC(C)C)NC(=O)[C@H](Cc1ccc(O)cc1)NC(=O)[C@H](CCCCN)NC(=O)[C@H](CO)NC(=O)[C@H](Cc1ccc(O)cc1)NC(=O)[C@H](CC(=O)O)NC(=O)[C@H](CO)NC(=O)[C@@H](NC(=O)[C@H](Cc1ccccc1)NC(=O)[C@@H](NC(=O)CNC(=O)[C@H](CCC(N)=O)NC(=O)[C@H](CO)NC(=O)[C@@H](N)Cc1c[nH]cn1)[C@@H](C)O)[C@@H](C)O)C(=O)N[C@@H](C)C(=O)N[C@@H](C)C(=O)N[C@@H](Cc1c[nH]cn1)C(=O)N[C@@H](CC(=O)O)C(=O)N[C@@H](Cc1ccccc1)C(=O)N[C@H](C(=O)N[C@@H](CCC(=O)O)C(=O)N[C@@H](Cc1c[nH]c2ccccc12)C(=O)N[C@@H](CC(C)C)C(=O)N[C@@H](CC(C)C)C(=O)N[C@@H](CO)C(=O)N[C@@H](C)C(=O)O)C(C)C)C(=O)O) [Compound 2],EC50 GLP-1R (murine insulinoma cells) [nM] (cAMP),[1],1.41 nM
same,EC50 GLP-1R Rat hepat. [nM] (inhibition of glycogen synthesis),[4],0.43 nM
same,EC50 hGCGR CHO-K1 [nM] (cAMP),[2],0.31 nM
same,EC50 hGLP-1R CHO-K1 [nM] (cAMP),[3],0.77 nM
same,Ratio GLP-1/Glucagon (EC50 hGLP-1R / EC50 hGCGR),[3],2.48 ratio
HXQGTFTSDYSKYLDEXAAKDFIEWLLSA (Aib at position 2; Lys 17 K(Hexadecanoyl-isoGlu); C-terminal amide (-NH2)) [Compound 4],EC50 GLP-1R (murine insulinoma cells) [nM] (cAMP),[1],0.95 nM
same,EC50 GLP-1R Rat hepat. [nM] (inhibition of glycogen synthesis),[4],0.35 nM
same,EC50 hGCGR CHO-K1 [nM] (cAMP),[2],1.56 nM
same,EC50 hGLP-1R CHO-K1 [nM] (cAMP),[3],0.38 nM
same,Ratio GLP-1/Glucagon (EC50 hGLP-1R / EC50 hGCGR),[3],0.24 ratio

# Reference: patent US20140080757A1 (ZEALAND PHARMA A S, published 2014)
